# According to publication PMC4348151:
# What was measured:
# gp41-longNC = assay: BLI; details: pH 4.0; second pH 7.0; 0.1% DPC
# gp41-longNC (HIV-1) = gp41-longNC (HIV-1) (UniProt P04578); assay: AUC
substance,measurement,setting,value
2F5,fold difference in KD at pHs 4 and 7,gp41-longNC,"4,000-fold"
4E10,fold difference,gp41-longNC,30-fold
gp41-longNC (from UniProt P04578) (domain or fragment),stoichiometry N,gp41-longNC (HIV-1),3
